{
  "source": "the supplement of paper PMC9112550",
  "about": "“Optimization of the antimicrobial peptide Bac7 by deep mutational scanning” (BMC Biology, 2022);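 note: peptides expressed intracellularly from a pBAD plasmid library in pooled LB shake-flask culture, induced with 0.3% L-arabinose, DNA abundance read by NGS, three biological replicates, DESeq2 with apeglm shrinkage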",
  "data": [
    {"tested_on": "Escherichia coli TOP10", "experiment": "shrunken log2 fold change of peptide-encoding DNA abundance (4.5 h post-induction vs induction); higher = less antimicrobial activity (less host growth inhibition)", "conditions": "time post-induction: 4.5 h; library: site-saturation at positions 5, 18, 19, 20", "values": [
      {"sequence": "RRIRFRPPRLPRPRPRPFCLPRP", "shrunken log2 fold change": -0.467},
      {"sequence": "RRIRSRPPRLPRPRPRPFANPRP", "shrunken log2 fold change": -0.0026},
      {"sequence": "RRIRNRPPRLPRPRPRPMSLPRP", "shrunken log2 fold change": -0.0381},
      {"sequence": "RRIRDRPPRLPRPRPRPPWQPRP", "shrunken log2 fold change": 0.475},
      {"sequence": "RRIRGRPPRLPRPRPRPQYSPRP", "shrunken log2 fold change": 0.0802},
      {"sequence": "RRIRCRPPRLPRPRPRPKPIPRP", "shrunken log2 fold change": 0.0598},
      {"sequence": "RRIRGRPPRLPRPRPRPHSGPRP", "shrunken log2 fold change": -0.0558},
      {"sequence": "RRIRPRPPRLPRPRPRPAVPPRP", "shrunken log2 fold change": 0.1},
      {"sequence": "RRIRNRPPRLPRPRPRPRVVPRP", "shrunken log2 fold change": 0.078},
      {"sequence": "RRIRARPPRLPRPRPRPHAFPRP", "shrunken log2 fold change": 0.231},
      {"sequence": "RRIRERPPRLPRPRPRPPWIPRP", "shrunken log2 fold change": -0.042},
      {"sequence": "RRIRKRPPRLPRPRPRPDPTPRP", "shrunken log2 fold change": 0.273},
      {"sequence": "RRIRGRPPRLPRPRPRPHWWPRP", "shrunken log2 fold change": 0.66},
      {"sequence": "RRIRWRPPRLPRPRPRPNKWPRP", "shrunken log2 fold change": -0.0175},
      {"sequence": "RRIRMRPPRLPRPRPRPLPCPRP", "shrunken log2 fold change": 0.372},
      {"sequence": "RRIRWRPPRLPRPRPRPTKVPRP", "shrunken log2 fold change": -0.0596},
      {"sequence": "RRIRWRPPRLPRPRPRPWEYPRP", "shrunken log2 fold change": -0.0716},
      {"sequence": "RRIRIRPPRLPRPRPRPALPPRP", "shrunken log2 fold change": -0.0671},
      {"sequence": "RRIRKRPPRLPRPRPRPAAFPRP", "shrunken log2 fold change": 0.59},
      {"sequence": "RRIRHRPPRLPRPRPRPDIAPRP", "shrunken log2 fold change": 0.00497},
      {"sequence": "RRIRMRPPRLPRPRPRPTKEPRP", "shrunken log2 fold change": -0.0201},
      {"sequence": "RRIRHRPPRLPRPRPRPIYRPRP", "shrunken log2 fold change": -0.111},
      {"sequence": "RRIRLRPPRLPRPRPRPNIVPRP", "shrunken log2 fold change": -0.00437},
      {"sequence": "RRIRKRPPRLPRPRPRPANMPRP", "shrunken log2 fold change": -0.167},
      {"sequence": "RRIRKRPPRLPRPRPRPTSCPRP", "shrunken log2 fold change": 0.174},
      {"sequence": "RRIRRRPPRLPRPRPRPKSYPRP", "shrunken log2 fold change": 0.171},
      {"sequence": "RRIRIRPPRLPRPRPRPHQCPRP", "shrunken log2 fold change": -0.331},
      {"sequence": "RRIRERPPRLPRPRPRPDLSPRP", "shrunken log2 fold change": -0.349},
      {"sequence": "RRIRQRPPRLPRPRPRPCFFPRP", "shrunken log2 fold change": -0.101},
      {"sequence": "RRIRKRPPRLPRPRPRPFLVPRP", "shrunken log2 fold change": 0.00497},
      {"sequence": "RRIRPRPPRLPRPRPRPPWDPRP", "shrunken log2 fold change": 0.312},
      {"sequence": "RRIRVRPPRLPRPRPRPEKQPRP", "shrunken log2 fold change": 0.101},
      {"sequence": "RRIRVRPPRLPRPRPRPVIVPRP", "shrunken log2 fold change": -0.349},
      {"sequence": "RRIRGRPPRLPRPRPRPSHIPRP", "shrunken log2 fold change": 0.0558},
      {"sequence": "RRIRKRPPRLPRPRPRPTQHPRP", "shrunken log2 fold change": 0.748},
      {"sequence": "RRIRNRPPRLPRPRPRPPYPPRP", "shrunken log2 fold change": -0.0162},
      {"sequence": "RRIRKRPPRLPRPRPRPQDSPRP", "shrunken log2 fold change": -0.017},
      {"sequence": "RRIRCRPPRLPRPRPRPMCHPRP", "shrunken log2 fold change": -0.662},
      {"sequence": "RRIRARPPRLPRPRPRPQKHPRP", "shrunken log2 fold change": 0.0336},
      {"sequence": "RRIRVRPPRLPRPRPRPDFVPRP", "shrunken log2 fold change": -0.0423},
      {"sequence": "RRIRSRPPRLPRPRPRPIFNPRP", "shrunken log2 fold change": -0.317},
      {"sequence": "RRIRVRPPRLPRPRPRPTYMPRP", "shrunken log2 fold change": -0.445},
      {"sequence": "RRIRARPPRLPRPRPRPLGNPRP", "shrunken log2 fold change": 0.0331},
      {"sequence": "RRIRFRPPRLPRPRPRPSPSPRP", "shrunken log2 fold change": 0.12},
      {"sequence": "RRIRQRPPRLPRPRPRPIGAPRP", "shrunken log2 fold change": -0.0217},
      {"sequence": "RRIRIRPPRLPRPRPRPHTQPRP", "shrunken log2 fold change": -0.124},
      {"sequence": "RRIRKRPPRLPRPRPRPGRAPRP", "shrunken log2 fold change": 0.786},
      {"sequence": "RRIRERPPRLPRPRPRPYMQPRP", "shrunken log2 fold change": -0.326},
      {"sequence": "RRIRYRPPRLPRPRPRPYSSPRP", "shrunken log2 fold change": -0.0396},
      {"sequence": "RRIRSRPPRLPRPRPRPAWFPRP", "shrunken log2 fold change": 0.171},
      {"sequence": "RRIRHRPPRLPRPRPRPWETPRP", "shrunken log2 fold change": -0.141},
      {"sequence": "RRIRARPPRLPRPRPRPNDRPRP", "shrunken log2 fold change": -0.0519},
      {"sequence": "RRIRARPPRLPRPRPRPRRVPRP", "shrunken log2 fold change": 1.36},
      {"sequence": "RRIRLRPPRLPRPRPRPHQRPRP", "shrunken log2 fold change": -0.259},
      {"sequence": "RRIRSRPPRLPRPRPRPNDDPRP", "shrunken log2 fold change": 0.0402},
      {"sequence": "RRIRIRPPRLPRPRPRPATSPRP", "shrunken log2 fold change": -0.273},
      {"sequence": "RRIRARPPRLPRPRPRPSASPRP", "shrunken log2 fold change": 0.167},
      {"sequence": "RRIRARPPRLPRPRPRPQIIPRP", "shrunken log2 fold change": 0.0561},
      {"sequence": "RRIRSRPPRLPRPRPRPEYGPRP", "shrunken log2 fold change": -0.346},
      {"sequence": "RRIRHRPPRLPRPRPRPNQLPRP", "shrunken log2 fold change": -0.154},
      {"sequence": "RRIRVRPPRLPRPRPRPCWYPRP", "shrunken log2 fold change": -0.544},
      {"sequence": "RRIRWRPPRLPRPRPRPWNNPRP", "shrunken log2 fold change": -0.77},
      {"sequence": "RRIRPRPPRLPRPRPRPWDSPRP", "shrunken log2 fold change": -0.456},
      {"sequence": "RRIRRRPPRLPRPRPRPKGTPRP", "shrunken log2 fold change": 0.25},
      {"sequence": "RRIRVRPPRLPRPRPRPYKAPRP", "shrunken log2 fold change": -0.0443},
      {"sequence": "RRIRGRPPRLPRPRPRPRFCPRP", "shrunken log2 fold change": 0.569},
      {"sequence": "RRIRCRPPRLPRPRPRPRLDPRP", "shrunken log2 fold change": 0.154},
      {"sequence": "RRIRMRPPRLPRPRPRPDDYPRP", "shrunken log2 fold change": 0.766},
      {"sequence": "RRIRPRPPRLPRPRPRPRVLPRP", "shrunken log2 fold change": -0.0343},
      {"sequence": "RRIRIRPPRLPRPRPRPSSPPRP", "shrunken log2 fold change": -0.746},
      {"sequence": "RRIRIRPPRLPRPRPRPIFNPRP", "shrunken log2 fold change": -0.589},
      {"sequence": "RRIRQRPPRLPRPRPRPRLIPRP", "shrunken log2 fold change": -0.076},
      {"sequence": "RRIRGRPPRLPRPRPRPSALPRP", "shrunken log2 fold change": 1.38},
      {"sequence": "RRIRNRPPRLPRPRPRPFRSPRP", "shrunken log2 fold change": 0.033},
      {"sequence": "RRIRQRPPRLPRPRPRPRGSPRP", "shrunken log2 fold change": 0.0908}
    ]}
  ]
}
